From article doi:10.1101/2022.07.21.500954 (bioRxiv, 2022)

Target: the molecule itself
Assay: SEC-MALS

B1: cerato-platanin-like protein 1 (Cpl1) from Ustilago maydis, tag-free recombinant protein (natural protein, UniProt A0A0D1E4Q7 22-240, looked up)
chain: AVDITFTSGKFNRRDDSTVVKQKNPEFGMNLANQYIIRKGAGLPPAKDVKETYPECKWRHYAGSFGWLDDYNVQCYLSPSYKFHAHSIAKAFKAEPSTKAGACFDTANTDQFPEGVPKYSIGVPYLYMNNLYDRRCKVRAMVKIPKTDEHEEKWVQAWVIDHNLGNWDKDGKENDAYPKDGVLIDTNMYEQFFDKNKKVPDYSKTVPVEWFFLDINTVG
stoichiometry N: 2
